{
  "source": "patent US20210292396A1",
  "binders": {"B1": {"name": "ePGT121.15 (ePGT121.15.H6 VH and ePGT121.15.L1 VL) (antibody, V domains shown)", "VH": "QMQLQESGPGLVKPGETLSLTCSVSGASISSSYWSWLRETPGKGLEWIGYTHHSGDTNYAPSLKSRVHLGLHPSKNQVSLSLTSVTAADTAVYYCARTLHGRRIYGVVAFNEFFTYFYWEVWGKGTQVTVSS", "VL": "SDISVAPGETVRISCGGESIGSRAVQWYQHRAGQAPKLIIYNNQDRPPGIPERFSGSPDIDFGTTATLTITNVEAGDEATYYCHIWDSRRPTNWVFGGGTTLTVL"}},
  "test_in_all_cases": "cell-based or functional assay",
  "key": {"[1]": {"biological_target": "Env of HIV isolate 0077.v1.c16 (clade C) (HIV)"}, "[2]": {"biological_target": "Env of HIV isolate 0921.v2.c14 (clade C) (HIV)"}, "[3]": {"biological_target": "Env of HIV isolate 16055-2.3 (clade C) (HIV)"}, "[4]": {"biological_target": "Env of HIV isolate 247-23 (clade D) (HIV)"}, "[5]": {"biological_target": "Env of HIV isolate 25710-2.43 (clade C) (HIV)"}, "[6]": {"biological_target": "Env of HIV isolate 25925-2.22 (clade C) (HIV)"}, "[7]": {"biological_target": "Env of HIV isolate 26191-2.48 (clade C) (HIV)"}, "[8]": {"biological_target": "Env of HIV isolate 3168.v4.c10 (clade C) (HIV)"}, "[9]": {"biological_target": "Env of HIV isolate 3326.v4.c3 (clade CD) (HIV)"}, "[10]": {"biological_target": "Env of HIV isolate 3337.v2.c6 (clade CD) (HIV)"}, "[11]": {"biological_target": "Env of HIV isolate 3718.v3.c11 (clade A) (HIV)"}, "[12]": {"biological_target": "Env of HIV isolate 398-F1.F6.20 (clade A) (HIV)"}, "[13]": {"biological_target": "Env of HIV isolate 5768.04 (clade B) (HIV)"}, "[14]": {"biological_target": "Env of HIV isolate 6631.v3.c10 (clade C) (HIV)"}, "[15]": {"biological_target": "Env of HIV isolate 6644.v2.c33 (clade C) (HIV)"}, "[16]": {"biological_target": "Env of HIV isolate AC10.29 (clade B) (HIV)"}, "[17]": {"biological_target": "Env of HIV isolate BI369.9A (clade A) (HIV)"}, "[18]": {"biological_target": "Env of HIV isolate BJOX025000.01.1 (clade AE) (HIV)"}, "[19]": {"biological_target": "Env of HIV isolate BR07.DG (clade B) (HIV)"}, "[20]": {"biological_target": "Env of HIV isolate C4118.09 (clade AE) (HIV)"}, "[21]": {"biological_target": "Env of HIV isolate CNE12 (clade B) (HIV)"}, "[22]": {"biological_target": "Env of HIV isolate CNE19 (clade BC) (HIV)"}, "[23]": {"biological_target": "Env of HIV isolate CNE21 (clade BC) (HIV)"}, "[24]": {"biological_target": "Env of HIV isolate HO86.8 (clade B) (HIV)"}, "[25]": {"biological_target": "Env of HIV isolate HT593.1 (clade B) (HIV)"}, "[26]": {"biological_target": "Env of HIV isolate JRFL.JB (clade B) (HIV)"}, "[27]": {"biological_target": "Env of HIV isolate MB539.2B7 (clade A) (HIV)"}, "[28]": {"biological_target": "Env of HIV isolate Q23.17 (clade A) (HIV)"}, "[29]": {"biological_target": "Env of HIV isolate Q461.e2 (clade AD) (HIV)"}, "[30]": {"biological_target": "Env of HIV isolate SC422.8 (clade B) (HIV)"}, "[31]": {"biological_target": "Env of HIV isolate SO18.18 (clade C) (HIV)"}, "[32]": {"biological_target": "Env of HIV isolate T253-11 (clade AG) (HIV)"}, "[33]": {"biological_target": "Env of HIV isolate T278-50 (clade AG) (HIV)"}, "[34]": {"biological_target": "Env of HIV isolate THRO.18 (clade B) (HIV)"}, "[35]": {"biological_target": "Env of HIV isolate TZA125.17 (clade C) (HIV)"}, "[36]": {"biological_target": "Env of HIV isolate UG037.8 (clade A) (HIV)"}, "[37]": {"biological_target": "Env of HIV isolate X1632.S2.B10 (clade G) (HIV)"}, "[38]": {"biological_target": "Env of HIV isolate X2131.C1.B5 (clade G) (HIV)"}, "Env of SIVmac251.30.SG3": {"biological_target": "Env of SIVmac251.30.SG3"}, "[39]": {"biological_target": "Envelope protein of SVA.MLV (clade NA)"}, "[40]": {"biological_target": "HIV Env of isolate 16936-2.21 (HIV)"}, "[41]": {"biological_target": "HIV Env of isolate 25710-2.43 (HIV)"}, "[42]": {"biological_target": "HIV Env of isolate 3326.v4.c3 (HIV)"}, "[43]": {"biological_target": "HIV Env of isolate 6471.v1.c16 (HIV)"}, "[44]": {"biological_target": "HIV Env of isolate CAP244.D3 (HIV)"}, "[45]": {"biological_target": "HIV Env of isolate CH119.10 (HIV)"}, "[46]": {"biological_target": "HIV Env of isolate P1981.C5.3 (HIV)"}, "[47]": {"biological_target": "HIV Env of isolate X2088.c9 (HIV)"}, "[48]": {"biological_target": "HIV Env of isolate ZM233.6 (HIV)"}, "[49]": {"biological_target": "HIV Env of isolate ZM249.1 (HIV)"}},
  "data": [
    {"binder": "B1", "values": [
      {"measurement": "IC50, pseudovirus neutralization", "setting": "[1]", "result": "> 50", "unit": "µg/mL"},
      {"measurement": "IC50, pseudovirus neutralization", "setting": "[2]", "result": 0.454, "unit": "µg/mL"},
      {"measurement": "IC50, pseudovirus neutralization", "setting": "[3]", "result": 0.029, "unit": "µg/mL"},
      {"measurement": "IC50, pseudovirus neutralization", "setting": "[4]", "result": "> 50", "unit": "µg/mL"},
      {"measurement": "IC50, pseudovirus neutralization", "setting": "[5]", "result": 0.006, "unit": "µg/mL"},
      {"measurement": "IC50, pseudovirus neutralization", "setting": "[6]", "result": 0.007, "unit": "µg/mL"},
      {"measurement": "IC50, pseudovirus neutralization", "setting": "[7]", "result": 0.005, "unit": "µg/mL"},
      {"measurement": "IC50, pseudovirus neutralization", "setting": "[8]", "result": 0.026, "unit": "µg/mL"},
      {"measurement": "IC50, pseudovirus neutralization", "setting": "[9]", "result": 0.362, "unit": "µg/mL"},
      {"measurement": "IC50, pseudovirus neutralization", "setting": "[10]", "result": 0.589, "unit": "µg/mL"},
      {"measurement": "IC50, pseudovirus neutralization", "setting": "[11]", "result": 0.489, "unit": "µg/mL"},
      {"measurement": "IC50, pseudovirus neutralization", "setting": "[12]", "result": 0.004, "unit": "µg/mL"},
      {"measurement": "IC50, pseudovirus neutralization", "setting": "[13]", "result": 0.028, "unit": "µg/mL"},
      {"measurement": "IC50, pseudovirus neutralization", "setting": "[14]", "result": 0.015, "unit": "µg/mL"},
      {"measurement": "IC50, pseudovirus neutralization", "setting": "[15]", "result": 0.003, "unit": "µg/mL"},
      {"measurement": "IC50, pseudovirus neutralization", "setting": "[16]", "result": 0.002, "unit": "µg/mL"},
      {"measurement": "IC50, pseudovirus neutralization", "setting": "[17]", "result": 0.002, "unit": "µg/mL"},
      {"measurement": "IC50, pseudovirus neutralization", "setting": "[18]", "result": "> 50", "unit": "µg/mL"},
      {"measurement": "IC50, pseudovirus neutralization", "setting": "[19]", "result": 0.009, "unit": "µg/mL"},
      {"measurement": "IC50, pseudovirus neutralization", "setting": "[20]", "result": "> 50", "unit": "µg/mL"},
      {"measurement": "IC50, pseudovirus neutralization", "setting": "[21]", "result": 0.003, "unit": "µg/mL"},
      {"measurement": "IC50, pseudovirus neutralization", "setting": "[22]", "result": 0.004, "unit": "µg/mL"},
      {"measurement": "IC50, pseudovirus neutralization", "setting": "[23]", "result": 0.002, "unit": "µg/mL"},
      {"measurement": "IC50, pseudovirus neutralization", "setting": "[24]", "result": "> 50", "unit": "µg/mL"},
      {"measurement": "IC50, pseudovirus neutralization", "setting": "[25]", "result": 0.008, "unit": "µg/mL"},
      {"measurement": "IC50, pseudovirus neutralization", "setting": "[26]", "result": 0.014, "unit": "µg/mL"},
      {"measurement": "IC50, pseudovirus neutralization", "setting": "[27]", "result": "> 50", "unit": "µg/mL"},
      {"measurement": "IC50, pseudovirus neutralization", "setting": "[28]", "result": 0.003, "unit": "µg/mL"},
      {"measurement": "IC50, pseudovirus neutralization", "setting": "[29]", "result": "> 50", "unit": "µg/mL"},
      {"measurement": "IC50, pseudovirus neutralization", "setting": "[30]", "result": 0.011, "unit": "µg/mL"},
      {"measurement": "IC50, pseudovirus neutralization", "setting": "[31]", "result": 0.004, "unit": "µg/mL"},
      {"measurement": "IC50, pseudovirus neutralization", "setting": "[32]", "result": 0.009, "unit": "µg/mL"},
      {"measurement": "IC50, pseudovirus neutralization", "setting": "[33]", "result": 4.87, "unit": "µg/mL"},
      {"measurement": "IC50, pseudovirus neutralization", "setting": "[34]", "result": "> 50", "unit": "µg/mL"},
      {"measurement": "IC50, pseudovirus neutralization", "setting": "[35]", "result": 0.07, "unit": "µg/mL"},
      {"measurement": "IC50, pseudovirus neutralization", "setting": "[36]", "result": 0.004, "unit": "µg/mL"},
      {"measurement": "IC50, pseudovirus neutralization", "setting": "[37]", "result": "> 50", "unit": "µg/mL"},
      {"measurement": "IC50, pseudovirus neutralization", "setting": "[38]", "result": 0.002, "unit": "µg/mL"},
      {"measurement": "IC80, pseudovirus neutralization", "setting": "Env of SIVmac251.30.SG3", "result": "> 50", "unit": "µg/mL"},
      {"measurement": "IC50, pseudovirus neutralization", "setting": "[39]", "result": "> 50", "unit": "µg/mL"},
      {"measurement": "IC80, pseudovirus neutralization", "setting": "[40]", "result": 0.007, "unit": "µg/mL"},
      {"measurement": "IC80, pseudovirus neutralization", "setting": "[41]", "result": 0.021, "unit": "µg/mL"},
      {"measurement": "IC80, pseudovirus neutralization", "setting": "[42]", "result": 5.05, "unit": "µg/mL"},
      {"measurement": "IC80, pseudovirus neutralization", "setting": "[43]", "result": 6.35, "unit": "µg/mL"},
      {"measurement": "IC80, pseudovirus neutralization", "setting": "[44]", "result": "> 50", "unit": "µg/mL"},
      {"measurement": "IC80, pseudovirus neutralization", "setting": "[45]", "result": 0.016, "unit": "µg/mL"},
      {"measurement": "IC80, pseudovirus neutralization", "setting": "[46]", "result": 0.005, "unit": "µg/mL"},
      {"measurement": "IC80, pseudovirus neutralization", "setting": "[47]", "result": 0.01, "unit": "µg/mL"},
      {"measurement": "IC80, pseudovirus neutralization", "setting": "[48]", "result": 0.073, "unit": "µg/mL"},
      {"measurement": "IC80, pseudovirus neutralization", "setting": "[49]", "result": 1.01, "unit": "µg/mL"}
    ]}
  ]
}
